B1: ESRRG (parent)
chain: YSCPATNECEITKRRRKSCQACRF

Variants of: B1
Assay: protein stability index of a GFP-peptide fusion (GPS, HEK-293T) (PSI 1-6); higher = more stable
Conditions: c terminus: a fixed tail appended
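Also: lentivirally expressed fusions sorted by FACS into six bins by GFP to DsRed ratio, PSI derived from sequencing read proportions per bin multiplied by bin number.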

| Variant | protein stability index |
| --- | --- |
| F24G | 4.18 |
| F24A | 4 |
| F24L | 3.61 |
| F24E | 4.19 |
| F24I | 3.67 |
| F24M | 3.89 |
| F24C | 3.62 |
| F24Q | 3.7 |
| F24P | 3.51 |
| F24Y | 3.53 |
| F24R | 3.41 |
| F24H | 4.18 |
| F24S | 3.89 |
| F24T | 4.12 |
| F24K | 4.41 |
| F24W | 2.88 |
| F24V | 4 |
| F24D | 4.07 |
| F24N | 4.28 |
| C22Y | 3.01 |
| C22V | 3.66 |
| C22P | 3.86 |
| C22N | 4.09 |
| C22W | 2.94 |
| C22Q | 3.67 |

| Variant | protein stability index |
| --- | --- |
| C22M | 2.9 |
| C22T | 3.58 |
| C22R | 3.87 |
| C22L | 3.71 |
| C22S | 3.9 |
| R23N | 3.92 |
| R23C | 3.71 |
| R23G | 3.79 |
| R23P | 3.7 |
| R23L | 2.73 |
| R23Q | 3.69 |
| R23D | 3.88 |
| R23Y | 3.3 |
| R23F | 2.33 |
| R23K | 3.33 |
| R23T | 3.01 |
| R23I | 2.59 |
| R23H | 2.96 |
| R23M | 3.04 |
| R23E | 4.02 |
| R23V | 2.46 |
| R23S | 3.22 |
| R23W | 2.09 |
| R23A | 3.1 |

Reference: the supplement of paper PMC10567573
